Our source for the stoichiometry N (H2A–H2B per FACT) values is publication PMC6238592.

The experiment addresses human FACT (FAcilitates Chromatin Transcription), full length (human) (UniProt Q9Y5B9). Put plainly: AUC; SV-AUC, absorbance optics; 1.8 μM FACT incubated with histones at the indicated molar ratios for 10 min at room temperature; 150 mM NaCl, 20 mM Tris pH 8.0, 1 mM TCEP; 20°C.

For the substance “histone H2A–H2B dimer (no label stated) (from UniProt P06897 1-130; P02281 1-126) (complex)”, the stoichiometry N (H2A–H2B per FACT) was 1.
